According to patent publication US7265202:
Blank lines part the entries; values can stand above or below the binder they belong to.

Key:
Assay in all cases: cell-based or functional assay
[1] = molecular target: STAT3-STAT1 heterodimer (human) (UniProt P40763)
[2] = molecular target: STAT3-STAT3 homodimer (human) (UniProt P40763)
[3] = molecular target: STAT1 (from a transfected expression vector)
[4] = molecular target: STAT3 (from a transfected expression vector)
[5] = molecular target: STAT1 in interferon-treated human cells (human) (UniProt P42224)
Chain of STAT1 in interferon-treated human cells (human) (P42224 2-750 limits assumed): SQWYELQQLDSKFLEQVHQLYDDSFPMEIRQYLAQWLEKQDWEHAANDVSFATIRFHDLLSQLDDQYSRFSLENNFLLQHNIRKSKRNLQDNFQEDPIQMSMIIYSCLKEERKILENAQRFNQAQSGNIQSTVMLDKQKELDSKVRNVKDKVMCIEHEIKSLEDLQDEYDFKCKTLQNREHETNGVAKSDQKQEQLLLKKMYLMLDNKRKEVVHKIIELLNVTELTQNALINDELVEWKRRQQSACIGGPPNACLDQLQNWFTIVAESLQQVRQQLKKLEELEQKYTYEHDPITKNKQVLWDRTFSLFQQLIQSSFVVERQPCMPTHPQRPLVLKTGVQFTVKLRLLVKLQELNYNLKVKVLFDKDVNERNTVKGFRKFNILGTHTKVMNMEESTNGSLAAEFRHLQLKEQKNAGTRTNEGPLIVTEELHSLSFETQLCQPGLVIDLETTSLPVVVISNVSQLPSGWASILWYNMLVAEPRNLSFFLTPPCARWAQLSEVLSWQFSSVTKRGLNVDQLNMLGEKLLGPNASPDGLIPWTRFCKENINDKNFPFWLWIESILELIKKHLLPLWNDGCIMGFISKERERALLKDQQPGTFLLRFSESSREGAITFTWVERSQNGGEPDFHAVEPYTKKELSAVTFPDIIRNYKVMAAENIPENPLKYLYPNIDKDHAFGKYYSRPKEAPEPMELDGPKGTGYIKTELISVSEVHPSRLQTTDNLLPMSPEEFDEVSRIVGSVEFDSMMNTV

Chain of STAT1 (from a transfected expression vector) (P42224 2-750): as the sequence (P42224 2-750 limits assumed) above
Chain of STAT3-STAT3 homodimer (human) (P40763 2-770 limits assumed): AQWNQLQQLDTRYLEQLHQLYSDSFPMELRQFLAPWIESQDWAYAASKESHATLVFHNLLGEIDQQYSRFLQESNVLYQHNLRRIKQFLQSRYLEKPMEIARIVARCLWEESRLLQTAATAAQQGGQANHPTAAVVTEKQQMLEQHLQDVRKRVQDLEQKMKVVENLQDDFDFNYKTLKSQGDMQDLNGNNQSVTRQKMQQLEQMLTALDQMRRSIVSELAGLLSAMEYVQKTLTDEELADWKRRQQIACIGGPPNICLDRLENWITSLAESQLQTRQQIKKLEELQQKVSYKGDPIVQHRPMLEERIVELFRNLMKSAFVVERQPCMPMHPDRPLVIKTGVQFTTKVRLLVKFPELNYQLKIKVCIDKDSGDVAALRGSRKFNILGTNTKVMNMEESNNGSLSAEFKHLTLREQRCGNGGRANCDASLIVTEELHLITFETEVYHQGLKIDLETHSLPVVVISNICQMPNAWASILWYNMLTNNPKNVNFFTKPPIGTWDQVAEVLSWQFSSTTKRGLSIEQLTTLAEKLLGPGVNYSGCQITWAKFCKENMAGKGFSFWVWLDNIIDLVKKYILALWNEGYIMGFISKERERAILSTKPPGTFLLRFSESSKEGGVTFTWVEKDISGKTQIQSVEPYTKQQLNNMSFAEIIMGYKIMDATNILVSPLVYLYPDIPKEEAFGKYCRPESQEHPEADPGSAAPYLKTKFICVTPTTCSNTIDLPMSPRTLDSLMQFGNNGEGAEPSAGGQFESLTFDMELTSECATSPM
Chain of STAT3-STAT1 heterodimer (human) (P40763 2-770 limits assumed, chain 1 of 2): as the sequence (P40763 2-770 limits assumed) above
Chain of STAT3-STAT1 heterodimer (human) (P42224 2-750 limits assumed, chain 2 of 2, further chain): as the sequence (P42224 2-750 limits assumed) above

DNA-binding activity in mobility gel shift assay, IL6-treated HepG2 nuclear extracts [1]: 100 ng
DNA-binding activity in mobility gel shift assay, IL6-treated HepG2 nuclear extracts [2]: 100 ng
B1: recombinant fusion protein of GST with PIAS3 (protein, not shown: a dimerising Fc or GST)
chain: MVMSFRVSELQVLLGFAGRNKSGRKHELLAKALHLLKSSCAPSVQMKIKELYRRRFPRKTLGPSDLSLLSLPPGTSPPVHPDVTMKPLPFYEVYGELIRPTTLASTSSQRFEEAHFTFALTPQQLQQILTSREVLPGAKCDYTIQVQLRFCLCETSCPQEDYFPPNLFVKVNGKLCPLPGYLPPTKNGAEPRGPAVRSTSHPWLDSQPLSPTPSLLIGHLSLDGITPCPCLVRQLTAGTLLQKLRAKGIRNPDHSRALIKEKLTADPDSEVATTSLPGVTHVPARKMRLTVPCRALTCAHLQSFDAALYLQMNEKKPTWTCPVCDKKAPYESLIIDGLFMEILNSCSDDDEIQFMEDGSWCPMKPKKEASEVCPPPGYGLDGLQYSAVQEGIQPESKKRVEVIDLTIESSSDEEDLPPTKKHCSPTSAAIPALPGSKGALTSGHQPSSVLRSPAMGTLGSDFLSSLPVHEYPPAFPLGADIQGLDLFSFLQTESQQYGPSVIISLDEQDTLGHFFQYRGTPSHFLGPLAPTLGSCHGSSTPAPPPGRVSSIVAPGSSLREGHGGPLPSGPSLTGCRSDVISLD

(4X)IRF-1 luciferase reporter in human 293 cells, IFN-α stimulation [3]: 1 µg
(4X)IRF-1 luciferase reporter in human 293 cells, IFN-α stimulation [4]: 1 µg
B2: FLAG-tagged PIAS3 (protein, not shown: small tags and cut ends)
chain: B1 chain

DNA binding activity in gel retardation assay, nuclear extracts of IFN-treated Daudi B cells [5]: 45 ng
B3: recombinant fusion protein of glutathione-S-transferase (GST) with PIAS1 (protein, not shown: a dimerising Fc or GST)
chain: MADSAELKQMVMSLRVSELQVLLGYAGRNKHGRKHELLTKALHLLKAGCSPAVQMKIKELYRRRFPQKIMTPADLSIPNVHSSPMPPTLSPSTIPQLTYDGHPASSPLLPVSLLGPKHELELPHLTSALHPVHPDIKLQKLPFYDLLDELIKPTSLASDNSQRFRETCFAFALTPQQVQQISSSMDISGTKCDFTVQVQLRFCLSETSCPQEDHFPPNLCVKVNTKPCSLPGYLPPTKNGVEPKRPSRPINITSLVRLSTTVPNTIVVSWTAEIGRNYSMAVYLVKQLSSTVLLQRLRAKGIRNPDHSRALIKEKLTADSDSEIATTSLRVSLLCPLGKMRLTIPCRALTCSHLQCFDATLYIQMNEKKPTWVCPVCDKKAPYEHLIIDGLFMEILKYCTDCDEIQFKEDGSWAPMRSKKVQEVTASYNGVDGCLSSTLEHQVASHNQSSNKNKKVEVIDLTIDSSSDEEEEEPPAKRTCPSLSPTSPLSNKGILSLPHQASPVSRTPSLPAVDTSYINTSLIQDYRHPFHMTPMPYDLQGLDFFPFLSGDNQHYNTSLLAAAAAAVSDDQDLLHSSRFFPYTSSQMFLDQLSAGGSTSLPATNGSSSGSNSSLVSSNSLRESHGHGVASRSSADTASIFGIIPDIISLD
